Our source for the Km and Vmax values is article PMC2440601.

Substrate in data set [1]: CC=O
In words: purified protein. Type of data set: biochemical, Homo sapiens. Particulars: NAD+.

Substrate in data set [2]: CC(=O)Oc1ccc([N+](=O)[O-])cc1
Nature of the data set: purified protein.

B1: ALDH1 (cytosolic aldehyde dehydrogenase, ALDH1A1) (Homo sapiens) (protein)
chain: SSSGTPDLPVLLTDLKIQYTKIFINNEWHDSVSGKKFPVFNPATEEELCQVEEGDKEDVDKAVKAARQAFQIGSPWRTMDASERGRLLYKLADLIERDRLLLATMESMNGGKLYSNAYLNDLAGCIKTLRYCAGWADKIQGRTIPIDGNFFTYTRHEPIGVCGQIIPWNFPLVMLIWKIGPALSCGNTVVVKPAEQTPLTALHVASLIKEAGFPPGVVNIVPGYGPTAGAAISSHMDIDKVAFTGSTEVGKLIKEAAGKSNLKRVTLELGGKSPCIVLADADLDNAVEFAHHGVFYHQGQCCIAASRIFVEESIYDEFVRRSVERAKKYILGNPLTPGVTQGPQIDKEQYDKILDLIESGKKEGAKLECGGGPWGNKGYFVQPTVFSNVTDEMRIAKEEIFGPVQQIMKFKSLDDVIKRANNTFYGLSAGVFTKDIDKAITISSALQAGTVWVNCYGVVSAQCPFGGFKMSGNGRELGEYGFHEYTEVKTVTVKISQKNS
As to B1, the Km in data set [1] was 200 ± 14 µM; in data set [2], 0.69 ± 0.03 µM. For the same protein, the Vmax in data set [1] was found to be 1.06 ± 0.02 µmol/min/mg; in data set [2] it was 0.155 µmol/min/mg.

B2: ALDH2 (mitochondrial aldehyde dehydrogenase) (Homo sapiens) (protein)
chain: SAAATQAVPAPNQQPEVFCNQIFINNEWHDAVSRKTFPTVNPSTGEVICQVAEGDKEDVDKAVKAARAAFQLGSPWRRMDASHRGRLLNRLADLIERDRTYLAALETLDNGKPYVISYLVDLDMVLKCLRYYAGWADKYHGKTIPIDGDFFSYTRHEPVGVCGQIIPWNFPLLMQAWKLGPALATGNVVVMKVAEQTPLTALYVANLIKEAGFPPGVVNIVPGFGPTAGAAIASHEDVDKVAFTGSTEIGRVIQVAAGSSNLKRVTLELGGKSPNIIMSDADMDWAVEQAHFALFFNQGQCCCAGSRTFVQEDIYDEFVERSVARAKSRVVGNPFDSKTEQGPQVDETQFKKILGYINTGKQEGAKLLCGGGIAADRGYFIQPTVFGDVQDGMTIAKEEIFGPVMQILKFKTIEEVVGRANNSTYGLAAAVFTKDLDKANYLSQALQAGTVWVNCYDVFGAQSPFGGYKMSGSGRELGEYGLQAYTEVKTVTVKVPQKNS
Turning to B2, in data set [1], the Km was 0.33 ± 0.005 µM and the Vmax was found to be 4 ± 0.03 µmol/min/mg. Further, in data set [2], the Km is 0.18 ± 0.01 µM and the Vmax was determined as 0.21 µmol/min/mg.

By Km is commonly meant the concentration of substrate that gives half-maximal velocity. By Vmax is commonly meant the top rate of the reaction or transport when substrate is in excess.
